Experimental data taken from patent publication US20110020344A1 (US Dept. of Health and Human Services, published 2011).

T1: Soluble CD22 (PeproTech) (human, UniProt P20273 20-687, limits assumed)
T1 construct: Bought from PeproTech; also called sCD22; soluble CD22 purified from mammalian cells
T1 sequence: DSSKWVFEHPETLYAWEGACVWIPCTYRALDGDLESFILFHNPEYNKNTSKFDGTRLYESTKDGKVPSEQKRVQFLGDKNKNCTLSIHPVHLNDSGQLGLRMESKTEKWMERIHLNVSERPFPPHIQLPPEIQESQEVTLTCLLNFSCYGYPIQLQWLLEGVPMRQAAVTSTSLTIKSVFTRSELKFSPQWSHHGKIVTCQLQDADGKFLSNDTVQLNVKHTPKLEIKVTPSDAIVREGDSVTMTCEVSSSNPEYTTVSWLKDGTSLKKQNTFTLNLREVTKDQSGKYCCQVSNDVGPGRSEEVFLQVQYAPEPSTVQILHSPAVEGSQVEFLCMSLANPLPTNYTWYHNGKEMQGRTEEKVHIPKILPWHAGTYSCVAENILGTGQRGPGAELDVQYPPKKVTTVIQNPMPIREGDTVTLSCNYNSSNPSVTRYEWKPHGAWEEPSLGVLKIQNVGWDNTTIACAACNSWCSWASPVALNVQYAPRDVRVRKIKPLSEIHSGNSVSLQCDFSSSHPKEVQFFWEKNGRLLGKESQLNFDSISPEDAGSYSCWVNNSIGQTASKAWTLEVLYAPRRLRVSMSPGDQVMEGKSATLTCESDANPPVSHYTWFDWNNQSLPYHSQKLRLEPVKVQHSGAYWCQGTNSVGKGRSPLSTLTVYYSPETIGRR

T2: native, cell surface-associated CD22 on B lymphoma cell lines (Raji, BJAB, ST486) (human, UniProt P20273 20-847)
T2 construct: Endogenous CD22 of Raji, BJAB and ST486 cells; the cell line is named under assay; also called cell surface CD22; cell-associated CD22
T2 sequence: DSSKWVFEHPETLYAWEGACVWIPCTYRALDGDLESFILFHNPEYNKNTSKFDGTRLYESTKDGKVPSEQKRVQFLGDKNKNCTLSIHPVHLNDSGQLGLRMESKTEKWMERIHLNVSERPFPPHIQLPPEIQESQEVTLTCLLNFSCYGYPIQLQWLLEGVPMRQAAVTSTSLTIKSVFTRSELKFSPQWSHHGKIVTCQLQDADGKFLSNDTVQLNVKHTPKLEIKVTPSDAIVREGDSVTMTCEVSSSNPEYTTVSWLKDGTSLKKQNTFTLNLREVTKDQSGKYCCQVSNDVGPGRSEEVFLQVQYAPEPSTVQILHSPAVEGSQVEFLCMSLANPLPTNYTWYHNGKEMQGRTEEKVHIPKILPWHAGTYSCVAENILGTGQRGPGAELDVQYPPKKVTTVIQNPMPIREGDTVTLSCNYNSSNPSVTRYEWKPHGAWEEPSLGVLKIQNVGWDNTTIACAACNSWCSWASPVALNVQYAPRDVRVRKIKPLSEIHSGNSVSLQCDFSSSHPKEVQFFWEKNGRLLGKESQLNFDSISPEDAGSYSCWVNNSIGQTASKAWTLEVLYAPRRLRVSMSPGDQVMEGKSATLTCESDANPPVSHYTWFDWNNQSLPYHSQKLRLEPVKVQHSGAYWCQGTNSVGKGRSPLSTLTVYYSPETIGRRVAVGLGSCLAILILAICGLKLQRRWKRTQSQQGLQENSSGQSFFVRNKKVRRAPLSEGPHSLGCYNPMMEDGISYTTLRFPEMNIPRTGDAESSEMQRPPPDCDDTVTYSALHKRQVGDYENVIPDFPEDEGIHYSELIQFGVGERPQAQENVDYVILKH

B1: Fab m972 (Fab, V domains shown)
VH: EVQLVQSGGGVVRPGGSLRLPCAASGFTFDDYGMSWVRQAPGKGLEWVSGINWNGGSTGYADSVKGRFTISRDNAKNSLYLQMNSLRAEDTALYHCARGGDDAFDIWGQGTMVTVSS
VL: RIVMTQSPGTLSVSPGETATLSCRASQSFSNMLAWYQQKSGQPPRLLIYGVSTRAAGVPARFSGSGSGTEFTLTISNLQSEDFAVYYCQQYGDWPRYTFGQGTKVERKR
notes: Human Fab from a naive Fab phage library, expressed in E. coli HB2151; also called m972 Fab
B2: IgG1 m972 (antibody, V domains shown)
VH: B1 VH
VL: B1 VL
notes: IgG1 format made by moving the heavy and light chains of the clone into pDR12, expressed in 293 free style cells; also called m972 IgG1; not shown: rest of the human IgG1 heavy chain constant region from vector pDR12

Tests used:
[1] = target: T1, Soluble CD22 (PeproTech); experiment: ELISA, Fab on coated soluble CD22
Description: (§1) CD22 or CD22-Fc in PBS was coated to a 96-well plate overnight at 4° C. The plate was then washed with PBST (PBS+0.05% Tween) and blocked with PBST supplemented with 5% dry milk. Fab, scFv or IgG1 diluted in PBST+milk was added to the wells. The Fab and scFv binding was detected using the anti-His-IgG-HRP (Qiagen) and the IgG1 binding was detected using the anti-human Fc-IgG-HRP (Sigma, St. Louis, Mo.). After washing, ABTS substrate (Roche, Mannheim, Germany) was added to each well and OD₄₀₅ was recorded after five to ten minutes.

[2] = target: T1, Soluble CD22 (PeproTech); experiment: ELISA, Fab on coated soluble CD22; reference Fab m971
[3] = target: T1, Soluble CD22 (PeproTech); experiment: ELISA, IgG1 on coated soluble CD22
Description: as §1

[4] = target: T2, native, cell surface-associated CD22 on …; experiment: flow cytometry titration on BJAB cells, apparent affinity from median fluorescence against concentration
Description: SupT1, Raji, BJAB, and ST486 cells in suspension culture were collected by centrifugation and then re-suspended in ice-cold RPMI+10% FBS medium at a density of 1×10⁶/ml. ScFv or IgG1 at different concentrations were added to the cells. Cells were left on ice for half an hour before being washed with the same complete RPMI medium. […] For IgG1, anti-human-IgG-FITC was added to the cells. The cells were then washed with RPMI medium twice and re-suspended in PBS and subjected to flow cytometry analysis using the FACSCalibur™ (Becton Dickinson, San Jose, Calif.)
The binding characteristics of the two IgGs to cell surface-associated CD22 was further analyzed by using increasing concentrations of both IgGs against BJAB cells in a flow cytometry assay.

Binder	EC50 [1] [nM]	fold better binding than m971 [2] [fold]	EC50 [3] [nM]	Kd [4] [nM]
B1	2	10		
B2			< 1	~15
